Two proteins from publication PMC13170675, “A Wnt-induced conformational phospho-switch in DVL3 controls association with Frizzled receptors and Wnt/β-catenin signaling” (Science Advances, 2026) can be followed below.

The series deals with the molecule itself. In words: native MS; native ESI-MS, 200 mM ammonium acetate buffer (pH 7.4); monomeric species are the main ones, homodimeric species detected.

B1: hDVL3 PDZ-IDR2-DEP (amino acids 243 to 496), nonphosphorylated (domain or fragment, human, UniProt Q92997 243-496, looked up)
chain: MSLNIITVTLNMEKYNFLGISIVGQSNERGDGGIYIGSIMKGGAVAADGRIEPGDMLLQVNEINFENMSNDDAVRVLREIVHKPGPITLTVAKCWDPSPRGCFTLPRSEPIRPIDPAAWVSHTAAMTGTFPAYGMSPSLSTITSTSSSITSSIPDTERLDDFHLSIHSDMAAIVKAMASPESGLEVRDRMWLKITIPNAFIGSDVVDWLYHNVEGFTDRREARKYASNLLKAGFIRHTVNKITFSEQCYYIFGD
notes: human Dishevelled 3 (DVL3), PDZ domain, IDR2 and DEP domain, amino acids 243 to 496; source: E. coli BL21 (DE3), purified (Ni-NTA, TEV cleavage, second Ni-NTA, anion exchange, SEC); not shown: His6, N-terminal, cleaved
As for B1, the binding result is given as “binds”.

B2: phosphorylated hDVL3 PDZ-IDR2-DEP (amino acids 243 to 496) (domain or fragment, human, UniProt Q92997 243-496, looked up)
chain: MSLNIITVTLNMEKYNFLGISIVGQSNERGDGGIYIGSIMKGGAVAADGRIEPGDMLLQVNEINFENMSNDDAVRVLREIVHKPGPITLTVAKCWDPSPRGCFTLPRSEPIRPIDPAAWVSHTAAMTGTFPAYGMSPSLSTITSTSSSITSSIPDTERLDDFHLSIHSDMAAIVKAMASPESGLEVRDRMWLKITIPNAFIGSDVVDWLYHNVEGFTDRREARKYASNLLKAGFIRHTVNKITFSEQCYYIFGD
modifications: 8 to 19 phosphates present (native ESI-MS), on S/T residues of IDR2, by CK1ε
notes: human Dishevelled 3 (DVL3), PDZ domain, phosphorylated IDR2 and DEP domain, amino acids 243 to 496; also called PDZ-pIDR2-DEP; source: E. coli BL21 (DE3), purified; phosphorylated by CK1ε; not shown: His6, N-terminal, cleaved
In the case of B2, the binding result is given as “binds”.
